Laboratory results published in patent US20220348610A1 (published 2022).
Numbered stars: 1 amine (or outer) side, 2 acyl side, 3 side chain; on linkers, the order of the positions; unused ones are H or OH. Bridge positions count the residues as written; N and C are the ends. Square brackets hold non-standard residues; d marks the D form. Tyr(OMe) = O-methyl-Tyr (4-methoxyphenylalanine), COc1ccc(C[C@H](N[*:1])C(=O)[*:2])cc1; Trp(5-F) = N[C@@H](Cc1c[nH]c2ccc(F)cc12)C(=O)O; mXylylene = c1cc(C[*:1])cc(C[*:2])c1; AlexaFluor 647 = AlexaFluor 647 dye; αMeP = C[C@@]1(C(=O)O)CCCN1; Mpa = O=C(O)CCS

Tests used:
biotinylated PCSK9 [1] = molecular target: T1, biotinylated PCSK9 (UniProt Q8NBP7 31-692, limits assumed, biotinylated (site not stated)); assay: Alexa FRET Standard assay
T1 sequence (Q8NBP7 31-692 limits assumed): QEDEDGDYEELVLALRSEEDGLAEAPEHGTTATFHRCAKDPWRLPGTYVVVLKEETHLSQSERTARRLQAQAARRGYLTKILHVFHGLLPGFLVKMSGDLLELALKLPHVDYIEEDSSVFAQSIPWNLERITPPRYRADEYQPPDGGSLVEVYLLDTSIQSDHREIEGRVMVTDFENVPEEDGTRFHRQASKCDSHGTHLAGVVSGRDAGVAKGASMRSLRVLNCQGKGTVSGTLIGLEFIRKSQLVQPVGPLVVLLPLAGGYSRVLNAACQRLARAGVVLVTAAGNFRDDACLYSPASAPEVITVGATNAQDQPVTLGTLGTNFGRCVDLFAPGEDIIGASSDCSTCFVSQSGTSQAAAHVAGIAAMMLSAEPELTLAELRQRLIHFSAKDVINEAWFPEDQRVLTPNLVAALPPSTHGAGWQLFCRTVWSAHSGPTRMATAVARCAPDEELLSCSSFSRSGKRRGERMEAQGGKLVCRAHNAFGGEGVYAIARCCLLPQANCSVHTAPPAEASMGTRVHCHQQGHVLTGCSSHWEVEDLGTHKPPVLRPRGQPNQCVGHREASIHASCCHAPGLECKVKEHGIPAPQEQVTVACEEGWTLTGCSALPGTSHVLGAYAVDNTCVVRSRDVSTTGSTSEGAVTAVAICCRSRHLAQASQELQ
Method: A solution containing 1 nM biotinylated PCSK9+2.5 nM Lance Streptavidin Europium (Strep-Eu) was made in 50 mM HEPES pH 7.4, 0.15 M NaCl, 5 mM CaCl₂), 0.01% BSA, and 0.01% Surfactant P20. A separate solution containing 40 nM of the AlexaFluor tagged cyclic peptide was made in the same buffer system. An Echo was used to transfer 0.750 ul of compound to an assay plate followed by the addition of 15 ul of PCSK9+Stept-Eu and 15 ul of AF peptide. The final assay volume was 30.750 ul containing 0.5 nM PCSK9, 1.25 nM Strep-Eu, and 20 nM AF cyclic peptide. The reaction was incubated at room temperature for at least two hours prior to fluorescence measurements using an Envision Multilabel Reader. IC₅₀ values were determined by fitting data to a sigmoidal dose-response curve using nonlinear regression. Kᵢ was then calculated from the IC₅₀ and the KD of AF cyclic peptide. Counts (B-counts) of the europium-labeled PCSK9 were followed to observe if compounds were […]. A fall off of the B-counts likely indicated a false positive of inhibition. Data from this procedure was reported as “A=‘numerical value’ (nanomolar)”

biotinylated PCSK9 [2] = molecular target: T1, biotinylated PCSK9; assay: Alexa FRET Plus assay
Method: A solution containing 1 nM biotinylated PCSK9+2.5 nM Lance Streptavidin Europium (Strep-Eu) was made in 50 mM HEPES pH 7.4, 0.15 M NaCl, 5 mM CaCl₂), 0.01% BSA, and 0.01% Surfactant P20. A separate solution containing 1920 nM of the AlexaFluor tagged cyclic peptide was made in the same buffer system. An Echo was used to transfer 0.075 ul of compound plus 0.675 ul of DMSO to each well of an assay plate followed by the addition of 15 ul of PCSK9+Stept-Eu and 15 ul of AF peptide. The final assay volume was 30.750 ul containing 0.5 nM PCSK9, 1.25 nM Strep-Eu, and 960 nM AF cyclic peptide. The reaction was incubated at room temperature for at least two hours prior to fluorescence measurements using an Envision Multilabel Reader. IC₅₀ values were determined by fitting data to a sigmoidal dose-response curve using nonlinear regression. Kᵢ was then calculated from the IC₅₀ and the KD of AF cyclic peptide. Counts (B-counts) of the europium-labeled PCSK9 were followed to observe if compounds were adversely affecting PCSK9. A fall off of the B-counts likely indicated a false positive of inhibition. Data from this procedure was reported as “P=‘numerical value’ (nanomolar)”

Row | Binder | Kd (biotinylated PCSK9 [1]) [nM] | Kd (biotinylated PCSK9 [2]) [nM]
1 | [Mpa]K(AlexaFluor 647)G[Trp(5-F)][Trp(5-F)]DHY[αMeP]C-NH2 (linker N-10 via mXylylene; not fully specified, also called AlexaFluor647 (AF) tagged cyclic peptide; AF cyclic peptide) [Reagent A] | 83 | 
2 | [Mpa]K(AlexaFluor 647)[dA][Trp(5-F)][Trp(5-F)]DH[Tyr(OMe)][αMeP]C-NH2 (linker N-10 via mXylylene; not fully specified, also called AlexaFluor647 (AF) tagged cyclic peptide; AF cyclic peptide) [Reagent B] |  | 35
